Here are results for one substance from publication PMC8670721.

The Kd is the equilibrium constant for the complex coming apart.

The test system of data set [1] is LIN28A (LIN28-TAT recombinant protein, Peprotech). Put plainly: EMSA. (Mobility shift assays separate free from complexed probe on a gel.)
The test system is the same in data set [2]. Put plainly: filter binding.

biotin-labeled pre-let-7a: the Kd was 25 nM in data set [1] and 10 nM in data set [2].
